In data set [1] the target is T1, HIV-1 integrase wild-type (IN1-288) (Human immunodeficiency virus 1, UniProt P04585 P04585:1148-1435). The data set is described as follows: inhibition; 3'-processing column as printed; strand transfer column 0.129. Particulars: G4.
Data set [2] concerns the target HIV-1 gp120 (Human immunodeficiency virus 1, UniProt P04578 P04578:33-511). The experiment in a line: competition; PT oligonucleotide inhibits V3 loop Mab binding to immobilized gp120. Particulars: tags: immobilized.
The target of data set [3] is T2, SIV integrase (Simian immunodeficiency virus, UniProt P05896 P05896:1156-1448).
T2 sequence: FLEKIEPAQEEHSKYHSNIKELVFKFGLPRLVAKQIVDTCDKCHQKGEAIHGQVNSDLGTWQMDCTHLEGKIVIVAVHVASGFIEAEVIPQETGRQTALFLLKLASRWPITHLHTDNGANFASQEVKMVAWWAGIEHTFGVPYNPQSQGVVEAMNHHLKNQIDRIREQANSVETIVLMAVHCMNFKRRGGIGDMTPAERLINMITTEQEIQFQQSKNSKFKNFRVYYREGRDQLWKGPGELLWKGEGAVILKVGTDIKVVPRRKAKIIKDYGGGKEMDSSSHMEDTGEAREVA
The experiment in a line: inhibition; 3'-processing. As to conditions: G4.

The target of data set [4] is FIV integrase (Feline immunodeficiency virus, UniProt P16088 P16088:844-1124). The experiment in a line: inhibition; 3'-processing. Particulars: G4.
Data set [5] has as its target HIV-1 nucleocapsid protein (Human immunodeficiency virus 1, UniProt P04591 P04591:378-432). The data set is described as follows: binds efficiently, data not shown. Particulars: G4.
The target in data set [6] is T1, HIV-1 integrase wild-type (IN1-288). The experiment in a line: inhibition; 3'-processing column as printed; strand transfer column 0.110. As to conditions: G4.
Data set [7] shares this target. The data set is described as follows: inhibition; 3'-processing; other column (strand transfer) 0.870; Table B-7 gives >0.50; only modest inhibition of U5 DNA binding at 500 nM (FIG. 25). Particulars: G4.
For data set [8] the target is unchanged. The experiment in a line: inhibition; 3'-processing column as printed; strand transfer column 0.090. As to conditions: G4.
The target of data set [9] is FMLV reverse transcriptase (Friend murine leukemia virus, UniProt P26810 P26810:661-1331). The data set is described as follows: inhibition; reverse transcriptase activity in culture medium. Particulars: protein: virion; tags: culture medium of chronically infected NIH3T3 cells.
The target of data set [10] is T1, HIV-1 integrase wild-type (IN1-288). The experiment in a line: inhibition; 3'-processing column as printed; strand transfer column 0.159. As to conditions: G4.
The target is the same in data set [11]. The experiment in a line: inhibition; 3'-processing column as printed; strand transfer column 0.485. As to conditions: G4.
Data set [12] has the same target. The experiment in a line: inhibition; 3'-processing column as printed; strand transfer column 0.059. Particulars: G4.

Regarding GTGGGTGGTGGGTGGGT (structured_DNA, C-5 propynyl dU at capital T; PS at first and last linkage) [T30722], in data set [1], the IC50 was 134 nM.

GGGTGGGTGGGTGGGTGG (ssDNA, PS all linkages) [1174]: in data set [2], the binding result is listed as “binds”. GTGGTGGGTGGGTGGGT (structured_DNA, PS at first and last linkage (pPT)) [T30177 (AR177)]: the IC50 was 420 nM in [3] and 175 nM in data set [4]. Besides, the binding result in data set [5] is on record as “binds”.

As for GTGGTGGGTGGGTGGGT (structured_DNA, 3'-cholesterol via triglycyl linker) [T30075], 95 nM corresponded to half-maximal inhibition in data set [6] (IC50). The molecule GGTTGGTGTGGTTGG (structured_DNA, PS at first and last linkage (Table B-7; Table C-1 says PT)) [T30659 thrombin binding aptamer pPT] returned a concentration for half-maximal inhibition (IC50) in data set [7] of 750 nM. In [8], GTGGTGGGTGGGTGGGT (structured_DNA, 5-bromo dU at 13; PS at first and last linkage [n positions 13 = modified dU]) [T30570] had an IC50 of 70 nM. The molecule GTTGGGGGTTGTTGGTGGGGTGGTGG (ssDNA, PS all linkages) [I100-12] returned an IC50 in data set [9] of under 500 nM.

For the molecule GTGGTGGGTGGGTGGGTGGTGGGTGGTGGTTGTGGGTGGGTGGTG (ssDNA, PS all linkages) [I100-21], in [2], the binding result is listed as “binds”. Consider GTGGTTGGTGGGTGGGT (structured_DNA, PS at first and last linkage) [T30679], for which it took 156 nM to reach half-maximal inhibition in data set [10] (IC50). This lies in the sub-micromolar range. As to GTGGTGGGTGTGGTTGGT (structured_DNA, PS at first and last linkage) [T30675], the IC50 in data set [11] is 500 nM. In other words, the sub-micromolar range.

With GGGGTGGTGGGTGGGT (structured_DNA, C-5 propynyl dU at capital T; PS at first and last linkage) [T30720], the IC50 in data set [12] came out at 62 nM.

(Values after patent US6288042, “Anti-viral guanosine-rich tetrad forming oligonucleotides” (Aronex Pharmaceuticals, Inc.).)
